T1: EsCas13d, nuclease-dead (Eubacterium siraeum, UniProt B0MS50, R295A;H300A;R849A;H854A)
T1 sequence: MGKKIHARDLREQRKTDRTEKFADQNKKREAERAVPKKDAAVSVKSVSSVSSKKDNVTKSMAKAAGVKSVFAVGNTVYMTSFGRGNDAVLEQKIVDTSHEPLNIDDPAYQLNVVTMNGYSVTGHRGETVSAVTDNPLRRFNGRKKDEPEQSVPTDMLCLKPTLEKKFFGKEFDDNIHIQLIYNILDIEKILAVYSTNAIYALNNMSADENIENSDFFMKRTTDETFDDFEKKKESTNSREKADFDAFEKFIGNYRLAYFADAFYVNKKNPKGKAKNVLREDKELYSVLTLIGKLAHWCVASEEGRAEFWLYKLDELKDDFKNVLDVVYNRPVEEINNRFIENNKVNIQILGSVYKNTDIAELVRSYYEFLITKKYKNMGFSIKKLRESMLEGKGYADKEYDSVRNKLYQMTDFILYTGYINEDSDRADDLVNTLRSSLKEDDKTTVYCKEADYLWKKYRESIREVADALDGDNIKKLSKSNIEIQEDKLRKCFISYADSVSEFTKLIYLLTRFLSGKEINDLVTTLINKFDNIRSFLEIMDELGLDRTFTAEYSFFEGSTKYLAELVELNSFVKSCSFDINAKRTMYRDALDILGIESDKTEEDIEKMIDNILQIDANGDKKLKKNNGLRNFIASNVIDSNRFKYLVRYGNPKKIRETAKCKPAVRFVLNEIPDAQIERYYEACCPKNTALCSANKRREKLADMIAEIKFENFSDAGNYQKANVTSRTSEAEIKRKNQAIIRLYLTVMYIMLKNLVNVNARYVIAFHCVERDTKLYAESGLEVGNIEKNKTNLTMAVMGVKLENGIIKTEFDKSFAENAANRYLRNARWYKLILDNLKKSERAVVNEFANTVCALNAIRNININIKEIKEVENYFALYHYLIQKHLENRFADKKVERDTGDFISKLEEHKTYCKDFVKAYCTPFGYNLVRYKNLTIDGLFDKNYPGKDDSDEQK

B1: target 3 insA 3' of 3,insG 3' of 2 (mixed)
RNA 1: CACCCGUGCAAAAUUGCAGGGGUCUAAAACGACCUGAAUAUUUCAGAUCAAA
RNA 2: GGGAAUGGAUCCACAUCUACGAAUUCGUUUUUGAUCUGAAAUAUUCAGGAUGCUGCAGAUCGGAAGAGCACACGU
B2: target 3 insG 3' of 11,insC 3' of 3 (mixed)
RNA 1: CACCCGUGCAAAAUUGCAGGGGUCUAAAACGACCUGAAUAUUUCAGAUCAAA
RNA 2: GGGAAUGGAUCCACAUCUACGAAUUCGUUUUUGAUCUGAAAGUAUUCAGGCUCUGCAGAUCGGAAGAGCACACGU
B3: target 3 U7A,A13G (mixed)
RNA 1: CACCCGUGCAAAAUUGCAGGGGUCUAAAACGACCUGAAUAUUUCAGAUCAAA
RNA 2: GGGAAUGGAUCCACAUCUACGAAUUCGUUUUUGAUCUGGAAUAUACAGGUCUGCAGAUCGGAAGAGCACACGU
B4: target 3 insA 3' of 21,insA 3' of 6 (mixed)
RNA 1: CACCCGUGCAAAAUUGCAGGGGUCUAAAACGACCUGAAUAUUUCAGAUCAAA
RNA 2: GGGAAUGGAUCCACAUCUACGAAUUCGUUUUAUGAUCUGAAAUAUUCAAGGUCUGCAGAUCGGAAGAGCACACGU
B5: target 3 insC 3' of 3,insA 3' of 3 (mixed)
RNA 1: CACCCGUGCAAAAUUGCAGGGGUCUAAAACGACCUGAAUAUUUCAGAUCAAA
RNA 2: GGGAAUGGAUCCACAUCUACGAAUUCGUUUUUGAUCUGAAAUAUUCAGGCAUCUGCAGAUCGGAAGAGCACACGU
B6: target 3 C6U,U10C (mixed)
RNA 1: CACCCGUGCAAAAUUGCAGGGGUCUAAAACGACCUGAAUAUUUCAGAUCAAA
RNA 2: GGGAAUGGAUCCACAUCUACGAAUUCGUUUUUGAUCUGAAACAUUUAGGUCUGCAGAUCGGAAGAGCACACGU
B7: target 3 insA 3' of 2,insA 3' of 1 (mixed)
RNA 1: CACCCGUGCAAAAUUGCAGGGGUCUAAAACGACCUGAAUAUUUCAGAUCAAA
RNA 2: GGGAAUGGAUCCACAUCUACGAAUUCGUUUUUGAUCUGAAAUAUUCAGGUACAUGCAGAUCGGAAGAGCACACGU
B8: target 3 insC 3' of 22,insC 3' of 3 (mixed)
RNA 1: CACCCGUGCAAAAUUGCAGGGGUCUAAAACGACCUGAAUAUUUCAGAUCAAA
RNA 2: GGGAAUGGAUCCACAUCUACGAAUUCGUUUCUUGAUCUGAAAUAUUCAGGCUCUGCAGAUCGGAAGAGCACACGU
B9: target 3 insU 3' of 5,insA 3' of 3 (mixed)
RNA 1: CACCCGUGCAAAAUUGCAGGGGUCUAAAACGACCUGAAUAUUUCAGAUCAAA
RNA 2: GGGAAUGGAUCCACAUCUACGAAUUCGUUUUUGAUCUGAAAUAUUCAUGGAUCUGCAGAUCGGAAGAGCACACGU
B10: target 3 insG 3' of 8,insC 3' of 8 (mixed)
RNA 1: CACCCGUGCAAAAUUGCAGGGGUCUAAAACGACCUGAAUAUUUCAGAUCAAA
RNA 2: GGGAAUGGAUCCACAUCUACGAAUUCGUUUUUGAUCUGAAAUAUGCUCAGGUCUGCAGAUCGGAAGAGCACACGU
B11: target 3 insC 3' of 3,insG 3' of 2 (mixed)
RNA 1: CACCCGUGCAAAAUUGCAGGGGUCUAAAACGACCUGAAUAUUUCAGAUCAAA
RNA 2: GGGAAUGGAUCCACAUCUACGAAUUCGUUUUUGAUCUGAAAUAUUCAGGCUGCUGCAGAUCGGAAGAGCACACGU
B12: target 3 insA 3' of 22,insA 3' of 7 (mixed)
RNA 1: CACCCGUGCAAAAUUGCAGGGGUCUAAAACGACCUGAAUAUUUCAGAUCAAA
RNA 2: GGGAAUGGAUCCACAUCUACGAAUUCGUUUAUUGAUCUGAAAUAUUACAGGUCUGCAGAUCGGAAGAGCACACGU
B13: target 3 U2C,A5U (mixed)
RNA 1: CACCCGUGCAAAAUUGCAGGGGUCUAAAACGACCUGAAUAUUUCAGAUCAAA
RNA 2: GGGAAUGGAUCCACAUCUACGAAUUCGUUUUUGAUCUGAAAUAUUCUGGCCUGCAGAUCGGAAGAGCACACGU
B14: target 3 insA 3' of 14,insU 3' of 3 (mixed)
RNA 1: CACCCGUGCAAAAUUGCAGGGGUCUAAAACGACCUGAAUAUUUCAGAUCAAA
RNA 2: GGGAAUGGAUCCACAUCUACGAAUUCGUUUUUGAUCUGAAAAUAUUCAGGUUCUGCAGAUCGGAAGAGCACACGU
B15: target 3 insG 3' of 8,insC 3' of 3 (mixed)
RNA 1: CACCCGUGCAAAAUUGCAGGGGUCUAAAACGACCUGAAUAUUUCAGAUCAAA
RNA 2: GGGAAUGGAUCCACAUCUACGAAUUCGUUUUUGAUCUGAAAUAUGUCAGGCUCUGCAGAUCGGAAGAGCACACGU
B16: target 3 insC 3' of 10,insC 3' of 3 (mixed)
RNA 1: CACCCGUGCAAAAUUGCAGGGGUCUAAAACGACCUGAAUAUUUCAGAUCAAA
RNA 2: GGGAAUGGAUCCACAUCUACGAAUUCGUUUUUGAUCUGAAAUCAUUCAGGCUCUGCAGAUCGGAAGAGCACACGU
B17: target 3 insU 3' of 22,insU 3' of 16 (mixed)
RNA 1: CACCCGUGCAAAAUUGCAGGGGUCUAAAACGACCUGAAUAUUUCAGAUCAAA
RNA 2: GGGAAUGGAUCCACAUCUACGAAUUCGUUUUUUGAUCUUGAAAUAUUCAGGUCUGCAGAUCGGAAGAGCACACGU
B18: target 3 A5G,C6U (mixed)
RNA 1: CACCCGUGCAAAAUUGCAGGGGUCUAAAACGACCUGAAUAUUUCAGAUCAAA
RNA 2: GGGAAUGGAUCCACAUCUACGAAUUCGUUUUUGAUCUGAAAUAUUUGGGUCUGCAGAUCGGAAGAGCACACGU
B19: target 3 G3U,A5G (mixed)
RNA 1: CACCCGUGCAAAAUUGCAGGGGUCUAAAACGACCUGAAUAUUUCAGAUCAAA
RNA 2: GGGAAUGGAUCCACAUCUACGAAUUCGUUUUUGAUCUGAAAUAUUCGGUUCUGCAGAUCGGAAGAGCACACGU
B20: target 3 G3A,C6A (mixed)
RNA 1: CACCCGUGCAAAAUUGCAGGGGUCUAAAACGACCUGAAUAUUUCAGAUCAAA
RNA 2: GGGAAUGGAUCCACAUCUACGAAUUCGUUUUUGAUCUGAAAUAUUAAGAUCUGCAGAUCGGAAGAGCACACGU
B21: target 3 A5G,A18G (mixed)
RNA 1: CACCCGUGCAAAAUUGCAGGGGUCUAAAACGACCUGAAUAUUUCAGAUCAAA
RNA 2: GGGAAUGGAUCCACAUCUACGAAUUCGUUUUUGGUCUGAAAUAUUCGGGUCUGCAGAUCGGAAGAGCACACGU
B22: target 3 A12U,A18G (mixed)
RNA 1: CACCCGUGCAAAAUUGCAGGGGUCUAAAACGACCUGAAUAUUUCAGAUCAAA
RNA 2: GGGAAUGGAUCCACAUCUACGAAUUCGUUUUUGGUCUGAUAUAUUCAGGUCUGCAGAUCGGAAGAGCACACGU
B23: target 3 A12G,U22G (mixed)
RNA 1: CACCCGUGCAAAAUUGCAGGGGUCUAAAACGACCUGAAUAUUUCAGAUCAAA
RNA 2: GGGAAUGGAUCCACAUCUACGAAUUCGUUGUUGAUCUGAGAUAUUCAGGUCUGCAGAUCGGAAGAGCACACGU
B24: target 3 A9G,U22G (mixed)
RNA 1: CACCCGUGCAAAAUUGCAGGGGUCUAAAACGACCUGAAUAUUUCAGAUCAAA
RNA 2: GGGAAUGGAUCCACAUCUACGAAUUCGUUGUUGAUCUGAAAUGUUCAGGUCUGCAGAUCGGAAGAGCACACGU
B25: target 3 insA 3' of 6,insU 3' of 5 (mixed)
RNA 1: CACCCGUGCAAAAUUGCAGGGGUCUAAAACGACCUGAAUAUUUCAGAUCAAA
RNA 2: GGGAAUGGAUCCACAUCUACGAAUUCGUUUUUGAUCUGAAAUAUUCAAUGGUCUGCAGAUCGGAAGAGCACACGU
B26: target 3 insC 3' of 5,insG 3' of 2 (mixed)
RNA 1: CACCCGUGCAAAAUUGCAGGGGUCUAAAACGACCUGAAUAUUUCAGAUCAAA
RNA 2: GGGAAUGGAUCCACAUCUACGAAUUCGUUUUUGAUCUGAAAUAUUCACGGUGCUGCAGAUCGGAAGAGCACACGU
B27: target 1 A9C,U11G (mixed)
RNA 1: CACCCGUGCAAAAAUGCAGGGGUCUAAAACUGAGCGGAUAACCUCUCUAUGG
RNA 2: GGGAAUGGAUCCACAUCUACGAAUUCGUACCAUAGAGAGGGUCUCCGCUCACCGAGAUCGGAAGAGCACACGU
B28: target 1 U3G,C6U (mixed)
RNA 1: CACCCGUGCAAAAAUGCAGGGGUCUAAAACUGAGCGGAUAACCUCUCUAUGG
RNA 2: GGGAAUGGAUCCACAUCUACGAAUUCGUACCAUAGAGAGGUUAUCUGCGCACCGAGAUCGGAAGAGCACACGU

These binders were tested against T1, EsCas13d, nuclease-dead (assay: crRNA (strand 1, pre-loaded); Mg2+; 40 mM Tris-HCl pH 7.5, 150 mM NaCl, 6 mM MgCl2, 1 mM DTT, 0.1% Tween-20, 0.2 mg/ml BSA; 25 C; 10 min per concentration, then washed). Conditions: tags: His6-TwinStrep-SUMO cleaved; N-terminal SNAP kept (SNAP-Surface 488); label: 3' end held by stalled T7 RNA polymerase.
B1 gave a Kd of 0.0246 ± 0.0034 µM. For B2, the Kd was 0.076 ± 0.0215 µM. For B3, the Kd was 0.1 ± 0.05 µM. Work on B4 yielded a Kd of 0.0384 ± 0.00475 µM. In the case of B5, the Kd is reported as 0.00935 ± 0.00115 µM. B6 showed a Kd of 0.088 ± 0.0115 µM. In the case of B7, the Kd is reported as 0.0343 ± 0.00425 µM. In the case of B8, the Kd is reported as 0.033 ± 0.0045 µM. For B9, the Kd was 0.00639 ± 0.00052 µM. For B10, the Kd was 0.058 ± 0.0085 µM. In the case of B11, the Kd is reported as 0.0106 ± 0.00125 µM. Work on B12 yielded a Kd of 0.065 ± 0.0215 µM. For B13, the Kd was 0.0364 ± 0.0034 µM. For B14, the Kd was 0.0905 ± 0.0405 µM. In the case of B15, the Kd is reported as 0.0388 ± 0.00505 µM. For B16, the Kd was about 0.096 µM. B17 gave a Kd of 0.058 ± 0.009 µM. In the case of B18, the Kd is reported as 0.0115 ± 0.0013 µM. In the case of B19, the Kd is reported as 0.0255 ± 0.0024 µM. In the case of B20, the Kd is reported as 0.0515 ± 0.0055 µM. Binder B21 has a Kd of 0.0307 ± 0.0045 µM. B22 was tested, and the Kd was 0.097 ± 0.034 µM. In the case of B23, the Kd is reported as 0.086 ± 0.02 µM. In the case of B24, the Kd is reported as 0.0695 ± 0.0165 µM. Binder B25 has a Kd of 0.004 ± 0.00027 µM. With B26 the Kd was 0.029 ± 0.0028 µM. Work on B27 yielded a Kd of 0.044 ± 0.006 µM. Binder B28 has a Kd of 0.00479 ± 0.00035 µM.
